From patent US20220251204A1 (AstraZeneca / MedImmune, published 2022)

How the values were obtained:
[1] = molecular target: T1, human CTLA-4 antigen (soluble) (human, UniProt P16410 36-161); test: SPR, BIAcore T200; antibody captured on mouse anti-huIgG-Fab, antigen injected
T1 construct: also called hu CTLA4; soluble CTLA-4 antigen
T1 sequence: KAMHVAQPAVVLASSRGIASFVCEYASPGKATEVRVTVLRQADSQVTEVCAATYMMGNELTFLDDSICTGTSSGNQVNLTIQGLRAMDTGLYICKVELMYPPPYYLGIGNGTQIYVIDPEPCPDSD
Experimental: (§1) Binding experiments were carried out using a BIAcore T200 instrument (BIAcore). To capture the antibody, mouse anti-huIgG-Fab was immobilized on a CM5 chip to a target response of 2000 RU. 100 nM of the DuetMab or mAbs were flowed at 20 μL/min for 5 min to achieve approximately 100 response units of captured antibody. Antigen were then injected serially at a flow rate of 50 μl/min for 5 min. Kinetic parameters (kₒₙ and koff) and dissociation constant (KD) were calculated from a non-linear fit using BIAevaluation 4.1 software.

cynomolgus CTLA-4 = molecular target: T2, cynomolgus CTLA-4 (cynomolgus, UniProt G7PL88 36-161); test: as above
T2 construct: also called cyno CTLA4
T2 sequence: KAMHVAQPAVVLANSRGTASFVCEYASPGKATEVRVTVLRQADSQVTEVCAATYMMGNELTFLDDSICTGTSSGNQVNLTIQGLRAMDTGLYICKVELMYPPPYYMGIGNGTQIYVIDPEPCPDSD
Experimental: as §1

[2] = molecular target: T3, human PD-1 expressed on cells (human, UniProt Q15116 25-288); test: flow cytometry receptor occupancy, CHO cells expressing PD-1:CTLA-4 (10:1); free PD-1 detected with labeled anti-PD-1 mAb
T3 construct: also called CHO cells overexpressing human PD1
T3 sequence (Q15116 25-288 limits assumed): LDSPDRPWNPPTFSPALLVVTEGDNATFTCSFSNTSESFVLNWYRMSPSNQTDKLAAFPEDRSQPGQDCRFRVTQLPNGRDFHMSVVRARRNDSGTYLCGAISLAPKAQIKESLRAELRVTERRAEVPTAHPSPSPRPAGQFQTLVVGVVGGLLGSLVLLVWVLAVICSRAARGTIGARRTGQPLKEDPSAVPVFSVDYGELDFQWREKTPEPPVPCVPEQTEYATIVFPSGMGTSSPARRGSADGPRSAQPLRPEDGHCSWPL

[3] = molecular target: T4, human CTLA-4 expressed on cells (human, UniProt P16410 36-223); test: flow cytometry receptor occupancy, CHO cells expressing PD-1:CTLA-4 (10:1); free CTLA-4 detected with labeled anti-CTLA-4 mAb
T4 construct: also called CTLA-4 reporter cells
T4 sequence: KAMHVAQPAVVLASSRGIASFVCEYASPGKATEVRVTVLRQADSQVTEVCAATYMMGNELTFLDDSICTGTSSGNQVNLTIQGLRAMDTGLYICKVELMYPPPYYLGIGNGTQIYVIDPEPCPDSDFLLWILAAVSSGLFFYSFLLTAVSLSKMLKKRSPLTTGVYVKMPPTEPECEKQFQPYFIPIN

[4] = molecular target: T4, human CTLA-4 expressed on cells; test: flow cytometry receptor occupancy, CHO cells expressing PD-1:CTLA-4 (40:1); free CTLA-4 detected with labeled anti-CTLA-4 mAb
[5] = molecular target: T4, human CTLA-4 expressed on cells; test: flow cytometry receptor occupancy, CHO cells expressing PD-1:CTLA-4 (40:1), combination of the anti-PD-1 and anti-CTLA-4 mAbs; free CTLA-4 detected with labeled anti-CTLA-4 mAb; label stands beside the dark-diamond curve, which crosses 50 % at about 2.5 nM

B1: Anti-CTLA-4 IgG (antibody, V domains shown)
VH: QVQLVESGGGVVQPGRSLRLSCAASGFTFSSYGMHWVRQAPGKGLEWVAVIWYDGSNKYYADSVKGRFTISRDNSKNTLYLQMNSLRAEDTAVYYCARDPRGATLYYYYYGMDVWGQGTTVTVSS
VL: DIQMTQSPSSLSASVGDRVTITCRASQSINSYLDWYQQKPGKAPKLLIYAASSLQSGVPSRFSGSGSGTDFTLTISSLQPEDFATYYCQQYYSTPFTFGPGTKVEIK
notes: also called tremelimumab; MEDI1123
In the case of B1, the Kd [1] is reported as 0.48 nM, the koff [1] is reported as 0.000304 s⁻¹ and the kon [1] is reported as 633000 M⁻¹ s⁻¹. For the same binder, the Kd (cynomolgus CTLA-4) was 0.59 nM, the koff (cynomolgus CTLA-4) was 0.000674 s⁻¹ and the kon (cynomolgus CTLA-4) was 1.15e+06 M⁻¹ s⁻¹. For the same binder, the binding result [2] was “no binding (tested: about 200 nM)”, the IC50 [3] was 5 nM and the IC50 [4] was 4.4 nM. The IC50 [5] was 2.4 nM.
